In this assay the target is Plk4 CPB (in vitro binding, Supplementary Fig. 3i).
Chain of Plk4 CPB (in vitro binding, Supplementary Fig. 3i) (O00444 whole entry): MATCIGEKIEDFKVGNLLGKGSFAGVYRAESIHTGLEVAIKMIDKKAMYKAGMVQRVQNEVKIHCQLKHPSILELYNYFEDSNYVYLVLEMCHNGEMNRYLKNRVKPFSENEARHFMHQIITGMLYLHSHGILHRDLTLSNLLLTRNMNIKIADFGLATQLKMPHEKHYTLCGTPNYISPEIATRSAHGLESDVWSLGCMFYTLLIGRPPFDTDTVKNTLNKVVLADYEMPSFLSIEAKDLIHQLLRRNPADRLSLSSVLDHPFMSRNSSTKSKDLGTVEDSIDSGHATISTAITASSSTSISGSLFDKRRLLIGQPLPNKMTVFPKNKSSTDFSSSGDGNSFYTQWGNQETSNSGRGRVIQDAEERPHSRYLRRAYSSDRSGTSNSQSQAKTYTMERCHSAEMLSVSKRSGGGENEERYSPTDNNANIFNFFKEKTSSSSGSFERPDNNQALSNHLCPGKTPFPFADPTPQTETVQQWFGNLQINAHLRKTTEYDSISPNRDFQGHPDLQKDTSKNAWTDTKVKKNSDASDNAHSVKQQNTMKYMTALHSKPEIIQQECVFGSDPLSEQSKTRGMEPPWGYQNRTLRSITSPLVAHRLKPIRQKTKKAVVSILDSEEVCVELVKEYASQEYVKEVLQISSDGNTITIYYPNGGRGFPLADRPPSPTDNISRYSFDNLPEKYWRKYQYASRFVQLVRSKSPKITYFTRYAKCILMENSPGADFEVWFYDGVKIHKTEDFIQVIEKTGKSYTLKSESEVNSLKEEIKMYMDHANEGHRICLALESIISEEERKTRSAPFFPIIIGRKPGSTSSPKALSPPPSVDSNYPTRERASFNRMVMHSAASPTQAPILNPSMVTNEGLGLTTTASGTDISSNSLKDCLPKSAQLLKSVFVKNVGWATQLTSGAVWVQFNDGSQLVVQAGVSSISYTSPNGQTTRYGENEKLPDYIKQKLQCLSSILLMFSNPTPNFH

In the case of “recombinant Vpr (from UniProt P12520 1-96) (natural protein)”, the in vitro kinase assay: trans-autophosphorylation of the SSTT motif (S698, S700, T704, T707) of GST-Plk4(1–836; ∆PB3) in the presence of Vpr•VprBP, but not Vpr(1–79)•VprBP; anti-p-SSTT immunoblot came to 1.8 fold.

(Values after PMC10914751.)
